# Data as given in patent US20210292393A1 (published 2021).
# B1: antibody 533 (antibody, V domains shown)
# VH: GVQLVESGGVVVQPGGSLRLSCAASGFSFDDYTMHWVRQAPGKGLEWVSLVSWDGGTTYYTDSVKGRFTISRDNSKNSLYLQMNSLRTEDTALYFCAKDSGRIVPAATFDYWGQGTLVTVSS
# VL: DIQMTQSSSSLSASVGDRVTITCRASQDISNYLAWFQQKPGKAPKSLIYAASSLQSGVPSKFSGSGSGTDFTLTISSLQPEDFATYYCQQYYTYPLTFGGGTKVEIK
# B2: antibody 509 (antibody, V domains shown)
# VH: QVQLVESGGGVVQPGRSLRLSCAASGFNLSSYAMHWVRQASGKGLEWVSLISYDGSIKYYTDSVKGRFTVSGDNSKNTLFLQMNSLRADDSALYYCVRGGVSGPNSFDLWGQGTTVTVSS
# VL: DVVMTQSPLSLPVTLGQPASISCRSSQSLVYSDGNTYVNWFQQRPGQSPRRLIYKVSIRASGVPDRFSGSGSGTDFALKISRVEAEDVGVYYCMQGTHWPVTFGQGTKVEIK
# B3: antibody 517 (antibody, V domains shown)
# VH: QVQLVESGGGVVQPGRSLRLSCAASGFNLSNYAMHWVRQASGKGLEWVSLISYDGSIKYYTDSVKGRFTVSGDNSKNTLFLQMNSLRADDSALYYCVRGGVSGPNSFDMWGQGTTVTVSS
# VL: DVVMTQSPLSLPVTLGQPASISCRSSQSLVYSDGNTYVNWFQQRPGQSPRRLIYQVSIRASGVPDRFSGSGSGTDFALKISRVEAEDVGVYYCMQGTHWPVTFGQGTKVEIK
# B4: antibody 537 (antibody, V domains shown)
# VH: QVQLQQWGAGLLKPSETLSLTCAVYGGSFSGYYWSWIRQPPGKGLEWIGEINHSGSTNYNPSLKSRVTISVDTSKNQFSLKLSSVTAADTAVYYCARGLYYDMGGGFDYWGQGTLVTVSS
# VL: not shown
# B5: antibody 543 (antibody, V domains shown)
# VH: EVQLVESGGGLVQPGRSLRLSCAASGFTFHDYAMHWVRQAPGKGLEWVSGISWNSGSIGYADSVKGRFTISRDNAKNSLYLQMNSLRAEDTALYYCAKDTFGSSSWYRGDSYYYYGMDVWGQGTTVTVSS
# VL: QSALTQPASVSGSPGQSITISCTGTSSDVGGYNYVSWYQQHPGKAPKLMIYEVSNRPSGVSNRFSGSKSGNTASLTISGLQAEDEADYYCSSYTSSSTQRYVVFGGGTKLTVL
# B6: antibody 504 (antibody, V domains shown)
# VH: QVQLVESGGGVVQPGRSLRLSCAASGFTFSSYGMHWVRQAPGKGLEWVAVISYDGSNKYYADSVKGRFTISRDNSKNTLYLQMNSLRAEDTAVYYCAKGGGGGYCSGGSCYSHYFDYWGQGTLVTVSS
# VL: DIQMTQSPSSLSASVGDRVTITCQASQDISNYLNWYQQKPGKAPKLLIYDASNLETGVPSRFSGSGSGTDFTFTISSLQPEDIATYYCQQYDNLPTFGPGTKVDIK
# B7: antibody 536 (antibody, V domains shown)
# VH: QVQLVESGGGVVQPGRSLRLSCAASGFTFSSYVMHWVRQAPGKGLEWVALISYDGSNKYYADSVKGRFTISRDNSKNTLYLQMNSLRAEDTAVYYCARGGHIRVGRYFDWLISYFDYWGQGTLVTVSS
# VL: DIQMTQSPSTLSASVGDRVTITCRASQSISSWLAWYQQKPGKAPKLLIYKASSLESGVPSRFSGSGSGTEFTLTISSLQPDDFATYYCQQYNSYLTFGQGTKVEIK
# B8: antibody 527 (antibody, V domains shown)
# VH: QLQLQESGPGLVKPSETLSLTCTVSGGSISSSSYYWGWIRQPPGKGLEWIGSIYYSGSTYYNPSLKSRVTISVDTSKNQFSLKLSSVTAADTAMYYCASHVVVIASSYWCFDLWGRGTLVTVSS
# VL: QSALTQPASVSGSPGQSITISCTGTSSDVGGYNYVSWYQQHPGKAPKLMIYDVSNRPSGVSNRFSGSKSGNTASLTISGLQAEDEADYYCSSYTSISTWVFGGGTKLTVL
# B9: antibody 522 (antibody, V domains shown)
# VH: EVQLVESGGGLVQPGGSLRLSCAASGFNFSSYSMNWVRQAPGKGLEWVSYISSSSSTIYYADSVKGRFTISRDNAKNSLYLQMNSLRDEDTAVYYCARGPEWDIVVVQAENWFDPWGQGTLVTVSS
# VL: SYELTQPPSVSVSPGQTARITCSGDALPKQYVYWYQQKPGQAPVLVIYKDSERPSGIPERFSGSSSGTTVTLTISGVQAEDEADYYCQSADSSGTYRGVFGGGTKLTVL
# B10: antibody 523 (antibody, V domains shown)
# VH: EVQLVESGGVSVQPGGSLRLSCAASGFSFNTYDMHWVRQGTGKGLEWVSGIGTAGDTYYSDSVKGRCTISRDNAKNSLHLLVKSVRAADTAVYYCARGVGGIIDYWGQGTLVTVSS
# VL: NFVLSQPHSVSESPGKTVTISCTGNSGSIATKYVQWFQQRPGSAPTTVIYEDNQRPSGVPDRFSGSSDSSSNSASLTISGLKTEDEAHYYCQSYHNRRWVFGGGTKLTVL
# B11: antibody 363 (antibody, V domains shown)
# VH: EVQLLESGGGLVQPGGSLRLSCAASGFTFSTYAMSWVRQAPGKGLEWVSAISGSGGSTYYADSVKGRFTISRDNSKNTLYLQMNSLRAEDTAVYYCASGYSPDYWGQGTLVTVSS
# VL: not shown
# B12: antibody 331 (antibody, V domains shown)
# V domain 1: QITLKESGPTLVKPTETLTLTCSFSGFSLTKTGEAAGWIRQAPGRALEWVTVIFWDDDKRYSPSLQNRISVTKDTSKNQVVLRMTNVARFDTGTYFCWAMGGPGKEYFGQGTLVAVSS
# V domain 2: QSVLTQPPSVSGAPGQRVTISCTGTSSSIGPYSDVHWYQHVSGKAPRLLIFGNSNRPSGVPDRFSGSKSGTSASLVIAGLQAEDEADYYCQSYDSSLGEIYVFGTGTTVTVL
# B13: antibody 339 (antibody, V domains shown)
# V domain 1: QITLKESGPTLVKPTETLTLTCSFSGFSLTRTGEAAGWIRQAPGRALEWVTVIFWDDDKRYSPSLQSRLTVTKDTSKNQVVLTMTNVARFDTATYFCWAMGGPGKEYFGQGTQVAVSS
# V domain 2: QSVLTQPPSVSGAPGQRVTISCTGTSSSIGPYSDVHWYQHVSGKAPRLLIFGNSNRPSGVPDRFSGSKSGTSASLVIAGLQAEDEADYYCQSYDSSLGEIYVFGTGTTVTVL
# B14: antibody 348 (antibody, V domains shown)
# VH: QVQLVQSGSELKKPGASVKVSCKASGYTFTSYAMNWVRQAPGQGLEWMGWINTNTGNPTYAQGFTGRFVFSLDTSVSTAYLQISSLKAEDTAVYYCARDHELPNTSSWFGHFEYWGQGTLVTVSS
# VL: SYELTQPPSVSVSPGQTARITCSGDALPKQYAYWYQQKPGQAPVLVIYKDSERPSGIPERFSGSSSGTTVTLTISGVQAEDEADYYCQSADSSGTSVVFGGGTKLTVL
# B15: antibody 344 (antibody, V domains shown)
# VH: QVQLVESGGGVVQPGRSLRLSCAASGFTFSSYAMHWVRQAPGKGLEWMAVISYDGSNKYYADSVKGRFTISRDNSKNTLYLQMNSLRAEDTAVYFCAKGYSGSYYEPFDYWGQGTLVTVSS
# VL: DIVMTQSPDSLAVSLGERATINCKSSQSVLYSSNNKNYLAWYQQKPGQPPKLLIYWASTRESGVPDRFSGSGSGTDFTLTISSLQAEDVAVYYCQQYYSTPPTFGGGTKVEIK
# B16: antibody 345 (antibody, V domains shown)
# VH: QVQLQESGPGLVKPSQTLSLTCTVSGGSISSGDYYWSWIRQPPGKGLEWIGYIYYSGSTYYNPSLKSRVTISVDTSKNQFSLKLSSVTAADTAVYYCARVGMVDNWNFEGNWFDPWGQGTLVTVSS
# VL: QSALTQPRSVSGSPGQSVTISCTGTSSDVGGYNYVSWYQQHPGKAPKLMIYDVSKRPSGVPDRFSGSKSGNTASLTISGLQAEDEADYYCCSYAGSVVFGGGTKLTVL
# B17: antibody 340 (antibody, V domains shown)
# VH: QVQLVQSGAEVKKPGASVKVSCKASGYTFTSYDINWVRQATGQGLEWMGWMNPNSGNTGYAQKFQGRVTMTRNTSISTAYMELSSLRSEDTAVYYCARGRYCTGGVCWGDWYFDLWGRGTLVTVSS
# VL: QSVLTQPPSVSGAPGQRVTISCTGSSSNIGAGYDVHWYQQLPGTAPKFLIYGNSNRPSGVPDRFSGSKSGTSASLAITGLQAEDEADYYCQSYDSSLSGPVFGGGTKLTVL
# Target: SARS-CoV-2 full length spike protein (wild-type), conjugated to optically encoded beads (SARS-CoV-2, UniProt P0DTC2 14-1208)
row,Binder,median fluorescence fold over isotype [fold over isotype]
1,B1,23.4
2,B2,496
3,B3,434
4,B4,787
5,B5,802
6,B6,709
7,B7,643
8,B8,148
9,B9,433
10,B10,30.8

# Target: SARS-CoV-2 full length spike protein (wild type) (SARS-CoV-2, UniProt P0DTC2 14-1208)
row,Binder,median fluorescence intensity fold over isotype [fold over isotype control]
1,B11,1030
2,B12,850
3,B13,874
4,B14,869
5,B15,404
6,B16,562
7,B17,547
